{"source": "patent US9913914", "proteins": {"B1": {"name": "PTEN protein of Dictyostelium (protein)", "chain": "MSNLLRVAVSKQKRRYQKNGYDLDLAYITDNIVAMGFPSEKVEGVFRNPMKDVQRFLDQYHKDHFKVYNLCSERVYDHSKFYGRVGYYPFDDHNAPQFEMIDAFCRDVDAWMKEDSKNIAVIHCKAGKGRTGLMICCWLMYCGMWKNTEDSLRFYAALRTYNQKGVTIPSQIRYVGYFGRSIRESIKYVPRNVTLKKIVLRPLPKEINLSEVQFNISVGKNCVFNSKEHNMNVVISKKKKTVVDKNKKDPKKKLTKENSEKNIDSQQQQQSQSSLSQSQQGQSSPNMQSLSASGTISSGSNVGTVNGNTLHQLGGSQFSLSDLADGNTIGNDEYISFEIGALSLAGDIRIEFTNKQDDRMFMFWVNTSFVQQLEIIPKSGLDKAHKDKNHKAFPEDFHVELTFDQLDQQQSHTTVVASAEEQTNNQHYPQSSNNVATSSSHHDNITVVASDAPQNNNNNNNLNSSNSNNATTTTTKNNISLASSQSNPVQQESNPSTTTQVSEENSAPKVEAEKIENSNASANDSETSSNSSS"}}, "biological_target": "Cupid B-PTEN peptide", "data": [{"protein": "B1", "values": [{"measurement": "phosphorylation response of proteins to cyclic AMP (antibody detection on SDS gels)", "value": "they exhibited a much stronger initial phosphorylation response to cyclic AMP"}]}]}
